Data taken from patent publication US20100022445A1 (BAXALTA, published 2010).
*1 amine or outer side, *2 acyl side, *3 side chain or, on linkers, in order; H or OH if unused. Where no end group is shown, it is not given here. [ ]: non-standard residue; d: D form. NH(CH2)3(OCH2CH2)2O(CH2)3NH = C(CN[*:1])COCCOCCOCCCN[*:2]

B1: B03 (Ac-cimfwydeye-NH2) (peptide)
peptide: Ac-[dC][dI][dM][dF][dW][dY][dD][dE][dY][dE]-NH2
SMILES: CC[C@@H](C)[C@@H](NC(=O)[C@@H](CS)NC(C)=O)C(=O)N[C@H](CCSC)C(=O)N[C@H](Cc1ccccc1)C(=O)N[C@H](Cc1c[nH]c2ccccc12)C(=O)N[C@H](Cc1ccc(O)cc1)C(=O)N[C@H](CC(=O)O)C(=O)N[C@H](CCC(=O)O)C(=O)N[C@H](Cc1ccc(O)cc1)C(=O)N[C@H](CCC(=O)O)C(N)=O

What was measured:
mouse plasma = assay: equilibrium dialysis (HTD-96, 12-14 kD cut-off), 5 µM A01 in undiluted mouse plasma, 6 h at 37 °C, LC/MS/MS
human plasma = assay: equilibrium dialysis (HTD-96, 12-14 kD cut-off), 5 µM A01 in undiluted human plasma, 6 h at 37 °C, LC/MS/MS
HERG channel = HERG channel (UniProt Q12809 1-1159, limits assumed); assay: cell-based or functional assay
HERG channel, sequence (Q12809 whole entry): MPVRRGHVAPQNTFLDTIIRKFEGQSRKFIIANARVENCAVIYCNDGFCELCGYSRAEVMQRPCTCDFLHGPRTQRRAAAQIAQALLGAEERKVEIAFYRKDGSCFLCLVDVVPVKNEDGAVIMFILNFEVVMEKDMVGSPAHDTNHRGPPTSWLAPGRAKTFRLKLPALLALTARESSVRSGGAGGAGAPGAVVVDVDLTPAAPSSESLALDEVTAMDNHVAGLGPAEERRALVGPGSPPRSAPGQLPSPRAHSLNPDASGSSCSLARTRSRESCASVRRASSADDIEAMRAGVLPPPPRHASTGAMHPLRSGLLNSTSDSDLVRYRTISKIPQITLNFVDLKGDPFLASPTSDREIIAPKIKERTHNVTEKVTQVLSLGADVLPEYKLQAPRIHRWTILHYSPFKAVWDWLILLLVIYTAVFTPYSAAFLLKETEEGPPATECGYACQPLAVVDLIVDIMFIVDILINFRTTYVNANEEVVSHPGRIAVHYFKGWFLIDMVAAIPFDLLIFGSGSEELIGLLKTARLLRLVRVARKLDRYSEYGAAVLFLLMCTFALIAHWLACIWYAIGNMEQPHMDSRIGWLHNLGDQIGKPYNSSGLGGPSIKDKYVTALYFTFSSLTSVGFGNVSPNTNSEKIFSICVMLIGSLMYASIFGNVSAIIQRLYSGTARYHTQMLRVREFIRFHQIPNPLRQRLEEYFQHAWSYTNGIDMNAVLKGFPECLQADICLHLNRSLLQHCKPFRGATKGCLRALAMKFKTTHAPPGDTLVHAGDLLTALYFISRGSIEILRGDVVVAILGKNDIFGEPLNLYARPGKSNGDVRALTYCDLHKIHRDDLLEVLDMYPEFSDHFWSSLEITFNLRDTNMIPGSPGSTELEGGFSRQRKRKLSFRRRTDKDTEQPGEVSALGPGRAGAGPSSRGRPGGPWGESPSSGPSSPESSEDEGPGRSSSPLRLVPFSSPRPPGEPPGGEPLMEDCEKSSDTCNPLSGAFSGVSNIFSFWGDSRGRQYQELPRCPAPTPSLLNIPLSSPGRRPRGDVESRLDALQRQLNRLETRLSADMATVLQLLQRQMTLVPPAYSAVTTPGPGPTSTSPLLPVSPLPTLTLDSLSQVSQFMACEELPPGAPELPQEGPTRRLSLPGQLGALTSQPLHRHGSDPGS

Binder	HERG inhibition patch-clamp (% Inhibition of Tail Current at 1 µM) (HERG channel) [%]	HERG inhibition Rb+ efflux (% Inhibition at 10 µM) (HERG channel) [%]	also measured
Ac-RMKFDVWDLYFEIVW-NH2 [A01 (Ac-…-NH2)]	–	–	Average % Bound (mouse plasma): > 99.2%; Average % Bound (human plasma): > 98.3%
Ac-WDLYFEIVW-NH2 [A05 (Ac-WDLYFEIVW-NH2)]	14.5	–	–
Ac-WDLYFEIVWE [A06 (Ac-WDLYFEIVWE)]	–	-6.4	–
Ac-WDLYFEIVW[NH(CH2)3(OCH2CH2)2O(CH2)3NH]E [A07 (Ac-WDLYFEIVW-ttds-E)]	–	-3.4	–
ERMEFDVWDLYFEIVW-NH2 [A09 (ERMEFDVWDLYFEIVW-NH2)]	–	-1.6	–
PEG5000-RMKFDVWDLYFEIVW-NH2 [A16 (PEG5000-RMKFDVWDLYFEIVW-NH2)]	22.2	–	–
Ac-PMKFDVWDLYFEIVW-NH2 [A02 (Ac-PMKFDVWDLYFEIVW-NH2)]	–	-3.3	–
Ac-RMKFDVWDLYFEIVW-NH2 [A01 (Ac-RMKFDVWDLYFEIVW-NH2)]	16.5	–	–
B1	84.5	-2.1	–
